Columns and labels:
[1] = biological target: T1, murine major histocompatibility complex class II molecule I-E^d (murine, UniProt P01904 26-216; P01915 32-225, limits assumed); test: competition with reference peptides on transfected fibroblasts, IL-2 secretion of T hybridoma 26.1
T1 construct: whole, on cells;extracellular; Expressed on transfected fibroblasts
T1 sequence (MHC II alpha, looked up): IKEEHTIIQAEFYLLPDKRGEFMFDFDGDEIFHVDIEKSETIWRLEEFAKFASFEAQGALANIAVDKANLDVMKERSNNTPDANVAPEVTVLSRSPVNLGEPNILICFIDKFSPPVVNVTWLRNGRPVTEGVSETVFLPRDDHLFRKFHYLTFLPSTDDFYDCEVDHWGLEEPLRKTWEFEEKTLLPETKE
T1 sequence (MHC II beta, looked up): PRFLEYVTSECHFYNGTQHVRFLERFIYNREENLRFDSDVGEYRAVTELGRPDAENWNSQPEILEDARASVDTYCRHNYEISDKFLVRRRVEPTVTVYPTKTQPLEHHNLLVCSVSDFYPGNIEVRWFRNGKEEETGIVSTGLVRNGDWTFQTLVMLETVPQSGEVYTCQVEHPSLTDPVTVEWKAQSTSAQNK

[2] = biological target: T2, murine major histocompatibility complex class II molecule I-A^d (murine, UniProt P04228 24-218; P01921 28-226, limits assumed); test: competition with reference peptides on transfected fibroblasts, IL-2 secretion of T hybridoma 26.2
T2 construct: whole, on cells;extracellular; Expressed on transfected fibroblasts
T2 sequence (MHC II alpha, looked up): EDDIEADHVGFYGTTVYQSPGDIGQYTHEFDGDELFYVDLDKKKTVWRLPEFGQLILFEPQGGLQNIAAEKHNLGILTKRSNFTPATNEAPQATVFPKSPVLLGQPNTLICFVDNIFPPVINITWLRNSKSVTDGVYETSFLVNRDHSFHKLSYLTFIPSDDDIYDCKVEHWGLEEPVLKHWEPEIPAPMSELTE
T2 sequence (MHC II beta, looked up): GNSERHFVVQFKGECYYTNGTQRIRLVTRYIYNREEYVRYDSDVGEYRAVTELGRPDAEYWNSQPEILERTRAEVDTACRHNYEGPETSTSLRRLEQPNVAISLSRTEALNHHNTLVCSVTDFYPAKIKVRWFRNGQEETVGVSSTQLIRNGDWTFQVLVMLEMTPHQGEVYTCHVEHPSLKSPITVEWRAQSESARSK

[3] = biological target: T3, murine major histocompatibility complex class II molecule I-A^k (murine, UniProt P01910 24-218; P06343 28-224, limits assumed); test: competition with reference peptides on transfected fibroblasts, IL-2 secretion of T hybridoma E7E9
T3 construct: whole, on cells;extracellular; Expressed on transfected fibroblasts

Measured: binding result

B1: 131-151 peptide of the U1-70K protein (RIHMVYSKRSGKPRGYAFIEY) (peptide)
peptide: RIHMVYSKRSGKPRGYAFIEY
notes: Synthetic peptide; also called parent peptide; non-phosphorylated peptide
binds: all assays above

Source: US20140004136A1 (CENTRE NATIONAL DE LA RECHERCHE SCIENTIFIQUE, published 2014)
